T1: IGRP peptide on HLA-DRA*01:01 / HLA-DRB1*04:01 (human)
T1 peptide: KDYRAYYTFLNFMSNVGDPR

T2: influenza hemagglutinin peptide on HLA-DRA*01:01 / HLA-DRB1*04:01 (human)
T2 peptide: PRYVKQNTLKLAT


Columns and labels:
[1] = target: T1, IGRP peptide on HLA-DRA*01:01 / …; assay: multimer staining
[2] = target: T3, IGRP peptide on HLA-DRA*01:01 / HLA-DRB1*04:01 (human); assay: multimer staining; remark: listed apart in the source
[3] = target: IGRP peptide on HLA-DRA*01:01 / HLA-DRB1*04:01 (human); assay: multimer staining; remark: listed apart in the source
[4] = target: T2, influenza hemagglutinin peptide on …; assay: multimer staining
[5] = target: T1, IGRP peptide on HLA-DRA*01:01 / …; assay: proliferation
[6] = target: T3, IGRP peptide on HLA-DRA*01:01 / …; assay: proliferation; remark: listed apart in the source

Binder	binding result [1]	binding result [2]	binding result [3]	binding result [4]	binding result [5]	binding result [6]
Expanded TCR clonotype from subject T1D2 (Sequences 1 and 2) (TCR) alpha TRAV29 TRAJ40 CDR3: CAATRTSGTYKYIF beta TRBV6-6 TRBJ2-3 CDR3: CASSPWGAGGTDTQYF	no recognition	recognises	no recognition	no recognition	–	–
Expanded TCR clonotype from subject T1D4 (Sequences 3 and 4) (TCR) alpha TRAV2 TRAJ15 CDR3: CAVEDLNQAGTALIF beta TRBV5-1 TRBJ2-1 CDR3: CASSLALGQGNQQFF	–	–	recognises	no recognition	no recognition	no recognition

From publication PMC5499675 (2017)
